Data reported in patent US20150361164A1 (EVEC, published 2015).

T1: bovine thymus-derived HMGB1 (bovine, UniProt P10103 2-215)
T1 construct: Bought protein from tissue
T1 sequence (looked up): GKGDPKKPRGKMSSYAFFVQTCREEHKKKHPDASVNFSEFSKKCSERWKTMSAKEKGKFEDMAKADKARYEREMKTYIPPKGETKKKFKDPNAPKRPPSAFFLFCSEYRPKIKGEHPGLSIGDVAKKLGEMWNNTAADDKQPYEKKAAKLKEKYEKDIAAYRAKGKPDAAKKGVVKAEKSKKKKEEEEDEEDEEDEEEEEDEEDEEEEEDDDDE

B1: #10-22 chimeric antibody (H chain) site substitution variant A94R (antibody, human IgG1, lambda, V domains shown)
VH: AVQLVESGGGLVQPKESLKISCAASGFTFSNAAMYWVRQAPGKGLEWVARIRTKPNNYATYYADSVKGRFTISRDDSKSMVYLQMDNLKTEDTAMYYCTRPRRTEGIVSSGVDYWGQGVMVTVSS
VL: YELTQPPSVSVSPGQTASITCSGDELPKRYAYWYQQKPGQSIVRVIYKDSERPSGIPERFSGSSSGTTATLTISGTQAEDEADYYCHSTYSDDKLPVFGGGTKLTVLG
notes: Variant H chain co-expressed with EV007156L in CHO-K1 cells
B2: I20L (antibody, human IgG1, lambda)
heavy: not shown
light: YELTQPPSVSVSPGQTASITCSGDELPKRYAYWYQQKPGQSIVRVIYKDSERPSGIPERFSGSSSGTTATLTISGTQAEDEADYYCHSTYSDDKLPVFGGGTKLTVLGQPKAAPSVTLFPPSSEELQANKATLVCLISDFYPGAVTVAWKADSSPVKAGVETTTPSKQSNNKYAASSYLSLTPEQWKSHRSYSCQVTHEGSTVEKTVAPTECS
notes: co-expressed with EV007156L in CHO-K1 cells; also called #10-22 chimeric antibody (H chain) site substitution variant I20L; copies: 2 + 2
B3: M77T (antibody, human IgG1, lambda, V domains shown)
VH: AVQLVESGGGLVQPKESLKISCAASGFTFSNAAMYWVRQAPGKGLEWVARIRTKPNNYATYYADSVKGRFTISRDDSKSTVYLQMDNLKTEDTAMYYCTAPRRTEGIVSSGVDYWGQGVMVTVSS
VL: YELTQPPSVSVSPGQTASITCSGDELPKRYAYWYQQKPGQSIVRVIYKDSERPSGIPERFSGSSSGTTATLTISGTQAEDEADYYCHSTYSDDKLPVFGGGTKLTVLG
notes: co-expressed with EV007156L in CHO-K1 cells; also called #10-22 chimeric antibody (H chain) site substitution variant M77T; copies: 2 + 2
B4: E16G (antibody, human IgG1, lambda)
heavy: not shown
light: YELTQPPSVSVSPGQTASITCSGDELPKRYAYWYQQKPGQSIVRVIYKDSERPSGIPERFSGSSSGTTATLTISGTQAEDEADYYCHSTYSDDKLPVFGGGTKLTVLGQPKAAPSVTLFPPSSEELQANKATLVCLISDFYPGAVTVAWKADSSPVKAGVETTTPSKQSNNKYAASSYLSLTPEQWKSHRSYSCQVTHEGSTVEKTVAPTECS
notes: co-expressed with EV007156L in CHO-K1 cells; also called #10-22 chimeric antibody (H chain) site substitution variant E16G; copies: 2 + 2
B5: M89V (antibody, human IgG1, lambda, V domains shown)
VH: AVQLVESGGGLVQPKESLKISCAASGFTFSNAAMYWVRQAPGKGLEWVARIRTKPNNYATYYADSVKGRFTISRDDSKSMVYLQMDNLKTEDTAVYYCTAPRRTEGIVSSGVDYWGQGVMVTVSS
VL: YELTQPPSVSVSPGQTASITCSGDELPKRYAYWYQQKPGQSIVRVIYKDSERPSGIPERFSGSSSGTTATLTISGTQAEDEADYYCHSTYSDDKLPVFGGGTKLTVLG
notes: co-expressed with EV007156L in CHO-K1 cells; also called #10-22 chimeric antibody (H chain) site substitution variant M89V; copies: 2 + 2
B6: K15G (antibody, human IgG1, lambda)
heavy: not shown
light: YELTQPPSVSVSPGQTASITCSGDELPKRYAYWYQQKPGQSIVRVIYKDSERPSGIPERFSGSSSGTTATLTISGTQAEDEADYYCHSTYSDDKLPVFGGGTKLTVLGQPKAAPSVTLFPPSSEELQANKATLVCLISDFYPGAVTVAWKADSSPVKAGVETTTPSKQSNNKYAASSYLSLTPEQWKSHRSYSCQVTHEGSTVEKTVAPTECS
notes: co-expressed with EV007156L in CHO-K1 cells; also called #10-22 chimeric antibody (H chain) site substitution variant K15G; copies: 2 + 2
B7: D82aN (antibody, human IgG1, lambda, V domains shown)
VH: AVQLVESGGGLVQPKESLKISCAASGFTFSNAAMYWVRQAPGKGLEWVARIRTKPNNYATYYADSVKGRFTISRDDSKSMVYLQMNNLKTEDTAMYYCTAPRRTEGIVSSGVDYWGQGVMVTVSS
VL: YELTQPPSVSVSPGQTASITCSGDELPKRYAYWYQQKPGQSIVRVIYKDSERPSGIPERFSGSSSGTTATLTISGTQAEDEADYYCHSTYSDDKLPVFGGGTKLTVLG
notes: co-expressed with EV007156L in CHO-K1 cells; also called #10-22 chimeric antibody (H chain) site substitution variant D82aN; copies: 2 + 2
B8: A1E (antibody, human IgG1, lambda)
heavy: not shown
light: YELTQPPSVSVSPGQTASITCSGDELPKRYAYWYQQKPGQSIVRVIYKDSERPSGIPERFSGSSSGTTATLTISGTQAEDEADYYCHSTYSDDKLPVFGGGTKLTVLGQPKAAPSVTLFPPSSEELQANKATLVCLISDFYPGAVTVAWKADSSPVKAGVETTTPSKQSNNKYAASSYLSLTPEQWKSHRSYSCQVTHEGSTVEKTVAPTECS
notes: co-expressed with EV007156L in CHO-K1 cells; also called #10-22 chimeric antibody (H chain) site substitution variant A1E; copies: 2 + 2

These binders were tested against T1, bovine thymus-derived HMGB1 (assay: ELISA on HMGB1-immobilized immunoplate, antibodies adjusted to an equal concentration; OD as % of EV007156 (L) + #10-22 chimera (H) (source of the HMGB1 not named for this figure)).

Binding result, binds:
B1
B2
B3
B4
B5
B6
B7
B8
